From the supplement of paper PMC10567573
± gives the standard deviation.

Assay: protein stability index of a GFP-peptide fusion (GPS, HEK-293T) (PSI 1-6); higher = more stable
[1] = treatment: DMSO, c terminus: a fixed tail appended
[2] = treatment: MLN4924 1 uM, 8 h, c terminus: a fixed tail appended
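Note: 24-mer peptide tiles fused after GFP, lentivirally expressed, FACS-sorted into six equal bins by GFP/DsRed ratio, decoded by Illumina sequencing, PSI is the read-weighted mean bin number.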

Sequence | protein stability index [1] | protein stability index [2] | protein stability index (treatment: DMSO, c terminus: native) | protein stability index (treatment: MLN4924 1 uM, 8 h, c terminus: native)
ILTLTMISLFFLIIYMGSFMLMLL [CDS1] | 2.4 ± 0.65 | 2.35 ± 0.39 |  | 
VSKGAESSRSSEESSSDSGSSDSE [BRD3] | 5.61 ± 0.24 | 5.6 ± 0.41 |  | 
IKEIDEHAPGVPRILVGNRLHLAF [RAB40C] | 2.21 ± 0.21 | 2.06 ± 0.28 |  | 
WHDTCFVCAICQINLEGKTFYSKK [PDLIM7] | 2.24 ± 0.29 | 2.21 ± 0.15 |  | 
ETDDPRRYQKYGYIGTHEYPHFSH [OAS1] | 2.88 ± 0.15 | 3 ± 0.19 |  | 
QVLYEWEQGFSQSFTQEQVADIDG [CTNNB1] | 4.24 ± 0.3 | 4.09 ± 0.46 |  | 
VIRGLNTIPLFVQLLYSPIENIQR [CTNNB1] | 2.76 ± 0.3 | 2.68 ± 0.4 |  | 
VRRQRSADEQLHCAGKAKRSGGHA [ESR2] | 4.51 ± 0.32 | 4.75 ± 0.13 |  | 
PYSKTLVLQTSEGKALQQYPSERE [TRIM9] | 4.63 ± 0.088 | 4.66 ± 0.21 |  | 
YGNGMRKSPEMPVILEVSLEGSHD [RTP4] | 3.58 ± 0.26 | 3.97 ± 0.41 |  | 
LALHPEAPGLYNHLPWQYHAGQGG [CCDC3] | 3.2 ± 0.5 | 2.63 ± 0.28 |  | 
ESIQQTARSIAEQAHELAYDPNYM [PPTC7] | 4.52 ± 0.19 | 4.3 ± 0.37 |  | 
VRKKERGREEKCVWKHGITPPLKN [TAF7L] | 3.85 ± 0.41 | 3.83 ± 0.3 |  | 
SFSSLEPDNEQLMEEVISPRQVSY [IQUB] | 4.29 ± 0.2 | 4.56 ± 0.22 |  | 
LLYAQGLLAIQFLEFFYGIATATE [SLC19A2] | 3.53 ± 0.64 | 3.2 ± 0.037 |  | 
PSITRKRRYVASVSLHDRIYVIGG [KLHL12] | 2.24 ± 0.26 | 2.13 ± 0.4 |  | 
GSAPNSPMALLTIGSSSEKEIDDV [TFE3] | 5.26 ± 0.28 | 5.55 ± 0.18 |  | 
SASEPQPASQAASSSSASADLLAG [SNAP91] | 5.51 ± 0.17 | 5.41 ± 0.19 |  | 
IFYGSGIFNYMRLGSTKLSDKDKA [OR3A1] | 1.93 ± 0.23 | 2.12 ± 0.19 |  | 
KIQASGETPNSLNTTVIPNGSMAM [LYSMD4] | 4.22 ± 0.097 | 4.09 ± 0.2 |  | 
LPACTLCAGPLEDAVTIPCGHTFC [TRIM15] | 3.818 ± 0.022 | 4.16 ± 0.35 |  | 
LQKLSALLMTADILAETGIRKTVK [ELOA2] | 2.48 ± 0.64 | 2.34 ± 0.45 |  | 
FYGHSHHSHHGHPSHQSHSLPNRR [C10orf62] | 3.99 ± 0.29 | 4.21 ± 0.21 |  | 

Sequence | protein stability index [1] | protein stability index [2] | protein stability index (treatment: DMSO, c terminus: native) | protein stability index (treatment: MLN4924 1 uM, 8 h, c terminus: native)
MNEVKESLRSIEQKYKLFQQQQLT [SPACA9] | 3.33 ± 0.13 | 3.2 ± 0.22 |  | 
EQLLARGYAVNVFDIQQGFDNPQV [NSDHL] | 2.77 ± 0.19 | 3.54 ± 0.24 |  | 
GPALWLRSTCVYVCALSALPAGPL [PLEKHN1] | 2.98 ± 0.63 | 3.27 ± 0.74 |  | 
KIESLMDEIEFLKKLHEEELRDLQ [PRPH] | 3.14 ± 0.23 | 3.61 ± 0.35 |  | 
YSEEECKQYKAVVYSNTIQSIIAI [GNAI1] | 2.35 ± 0.63 | 2.06 ± 0.33 |  | 
QFLEEINKWTVQYNVSPLSWNVAV [PTPN9] | 2.79 ± 0.82 | 2.87 ± 0.49 |  | 
LVAFVLLNECVGTAYWALAGSIGG [SLC22A15] | 3.05 ± 0.34 | 2.86 ± 0.38 |  | 
ASGSFPSQVTATSGNGDFGDWSAF [CLINT1] | 3.4 ± 0.23 | 3.87 ± 0.12 |  | 
PVDLNKILEDMRCQYEALVENNRR [KRT36] | 3.31 ± 0.3 | 3.23 ± 0.36 |  | 
QKLQEITRCKSSEEKKPGELKRLV [TRIM39] | 4.16 ± 0.37 | 4.21 ± 0.17 |  | 
VAAGEKSILTDNPTWIIDPIDGTT [IMPA1] | 3.92 ± 0.19 | 4.03 ± 0.2 |  | 
VKFISNPPSMVAAGSVVAAVQGLN [CCND1] | 2.43 ± 0.62 | 2.42 ± 0.24 |  | 
VGQQVHNLLLTYLIVTSLLLLPGL [ARL6IP1] | 3.27 ± 0.26 | 3.46 ± 0.57 |  | 
QLPRPPIVGGNKGRSGPLPPVPLG [WAS] | 3.55 ± 0.13 | 3.83 ± 0.64 |  | 
VVMNLDSRLLIFPLYICCNFLYIS [GMCL1] | 2.59 ± 0.59 | 2.94 ± 0.36 |  | 
YLLPDTCFRMQINHAIDIICGFLK [OAS1] | 2.27 ± 0.3 | 2.1 ± 0.33 |  | 
QDGSESFFFRHGHRGLLTMQLKSP [SPAG8] | 2.96 ± 0.3 | 3.03 ± 0.35 |  | 
IIKQLKDVFERDWYSPYAKTLQPT [PLD5] | 1.98 ± 0.59 | 1.97 ± 0.39 |  | 
MLDMKVNPIQGLASKWDYEKNEWK [COX4I1] | 3.75 ± 0.18 | 3.65 ± 0.21 |  | 
LSASSPRMLHRSTQTTNDGVCQSM [ZMYND11] | 4 ± 0.24 | 4.34 ± 0.18 |  | 
RRATSGGKWPQVLFFPEGTCSNKK [LPCAT4] | 3.72 ± 0.31 | 3.78 ± 0.13 |  | 
PTPQVDELDILPIHPPSGNSDLDP [BTBD10] | 5.54 ± 0.097 | 5.39 ± 0.35 |  | 
NSCINPIALYFVSKKFKNCFQSCL [EDNRA] | 3.27 ± 0.34 |  |  | 

Sequence | protein stability index [1] | protein stability index [2] | protein stability index (treatment: DMSO, c terminus: native) | protein stability index (treatment: MLN4924 1 uM, 8 h, c terminus: native)
RLSVPRDSACDESSCIPKAFGNPK [IRX6] | 4.84 ± 0.18 | 4.89 ± 0.19 |  | 
GGGPEATLSISDVRTLSEPPDKGE [ZBTB22] | 5.33 ± 0.29 | 5.44 ± 0.31 |  | 
QNVHFHRSGSPTVPIKPPCIPNGK [CAMK2D] | 3.85 ± 0.26 | 4.05 ± 0.2 |  | 
TSRGGPWVGTGLAAALAGLVGLAT [CPOX] | 1.89 ± 0.93 | 2.49 ± 0.087 |  | 
LTKTFQGPAVVCGTPTSHVYMFKN [LYSMD4] | 2.45 ± 0.22 | 2.63 ± 0.15 |  | 
QETPGPREALTRLQELCYQWLRPH [ZSCAN9] | 2.54 ± 0.12 | 2.6 ± 0.17 |  | 
VFPAPVVGSGGATSGKLLLEADEL [ZBTB22] | 4.93 ± 0.25 | 4.73 ± 0.22 |  | 
AEEAEDHGRIPDPDDFVPPVPPPS [FAM189A2] | 5.52 ± 0.24 | 5.51 ± 0.06 |  | 
LPRKDYESLDYDRCINDPYLEVLE [CLCN6] | 3.4 ± 0.24 | 3.58 ± 0.18 |  | 
KDSHDPLPSWAELLRPKYRAPQGC [PBXIP1] | 3.01 ± 0.37 | 3.19 ± 0.2 |  | 
SNEWKTVVGGAMFFIGFTALVIMW [COX4I1] | 3.09 ± 0.14 | 3.06 ± 0.27 |  | 
AEGDSEGLSQGLVDREKGLSAEPG [CHGA] | 5.49 ± 0.23 | 5.49 ± 0.4 |  | 
LKKPIKGKQAPRKKAQGKTQQNRK [KMT5A] | 4.29 ± 0.2 | 4.45 ± 0.23 |  | 
HLDRTSVSSLSEVEEVDMAEEFEQ [ELOA2] | 5.66 ± 0.34 | 5.48 ± 0.4 |  | 
LSPDPEERPGAEGAPLLPPPLPPP [ACBD3] | 5.27 ± 0.15 | 5.32 ± 0.17 |  | 
HWNSTIKRKVDTGGFLSESKDCKP [MYBL2] | 3.93 ± 0.57 | 4.12 ± 0.32 |  | 
SLQSCMHFQPNSPASDLEAALEAA [NANOGP8] | 4.6 ± 0.22 | 4.63 ± 0.27 |  | 
MDHPSREKDERQRTTKPMAQRSAH [CSNK1G1] | 5.34 ± 0.22 | 5.09 ± 0.57 |  | 
APAGDKGFQPPSPSLRPRPASSIS [DMRTC1] | 4.61 ± 0.15 | 4.57 ± 0.26 |  | 
ASSSRSVRTTRGKRKRVDVEESEA [LMNB1] | 5.22 ± 0.39 | 5.49 ± 0.29 |  | 
IKRTIRVLDVNNQSFREQEEPSNK [NET1] | 3.68 ± 0.42 | 3.93 ± 0.26 |  | 
EGQHPAQLRSDVCTPGGTTIYGLH [PYCR3] | 3.8 ± 0.35 | 3.92 ± 0.39 |  | 
SEDAVGGATLGQTTSEEAVGGATL [HDAC6] | 5.54 ± 0.15 | 5.18 ± 0.4 |  | 

Sequence | protein stability index [1] | protein stability index [2] | protein stability index (treatment: DMSO, c terminus: native) | protein stability index (treatment: MLN4924 1 uM, 8 h, c terminus: native)
KLTREQEELEEALEVERQENEQRR [MNAT1] | 5.59 ± 0.18 | 5.45 ± 0.27 |  | 
SAAQTDPTTGYRRLLRFSSQIHNN [LOXL2] | 3.1 ± 0.2 | 3.23 ± 0.17 |  | 
LDKSTTGVSEILLKTQMKMSLKCL [FEM1B] | 2.6 ± 0.31 | 2.17 ± 0.26 |  | 
DREDSPERCSDSDEEKKARRGRSP [CLINT1] | 5.59 ± 0.3 | 5.34 ± 0.25 |  | 
LTVRKSQSEPSEQDGVLDLSTKKS [LCOR] | 5.15 ± 0.25 | 5.22 ± 0.24 |  | 
YVHHQALLDVKNIAHQNKFGEDMP [HDAC6] | 2.83 ± 0.54 | 3.49 ± 0.57 |  | 
YLAHASDVLENAFAPLLDEQYDLA [GOLPH3] | 2.83 ± 0.21 | 3.12 ± 0.36 |  | 
NTSLHVFVLDENDNAPAVLHPRPD [PCDHGC5] | 3.49 ± 0.27 | 3.51 ± 0.2 |  | 
LCCAFSTDGSVLAAGTHDGSVYFW [WSB1] | 2.78 ± 0.78 | 2.45 ± 0.78 |  | 
HHVPGGGNVKIDSQKLNFREHAKA [MAP2] | 4.3 ± 0.43 | 4.4 ± 0.27 |  | 
LASYLEKVRALEEANADLEVKIRD [KRT13] | 3.52 ± 0.22 | 3.56 ± 0.26 |  | 
KEEEEEDCSEEYLERQLQAEFIES [TAF7L] | 5.36 ± 0.36 | 5.56 ± 0.12 |  | 
VTHTLTMRQRISRVEESALRALRE [PPEF2] | 3.5 ± 0.38 | 3.86 ± 0.012 |  | 
GGGSSRISSVLAGGSCRAPSTYGG [KRT16] | 3.04 ± 0.59 | 3.46 ± 0.18 |  | 
MVLSRPCHPDDQFTTSILRHWCMK [INTS3] | 2.21 ± 0.18 | 2.26 ± 0.24 |  | 
AEMSRVSIRILDELVLPFQELQID [HNF4A] | 2.67 ± 0.35 | 2.74 ± 0.23 |  | 
LCPCLRSGIGSSQALGPSPPLFG [MYCL] |  |  | 2.54 ± 0.84 | 2.11 ± 0.26
MLAEIFCQTGGVEDQEEWHAQVVE [ZBED1] | 3.05 ± 0.2 | 3.49 ± 0.4 |  | 
MTEWKHQRITKQLEKWMQKNVEEN [GLT8D2] | 3.85 ± 0.21 | 3.97 ± 0.41 |  | 
SDKYPIQDTELPKAEECDTITLNC [EDARADD] | 5.25 ± 0.41 | 5.26 ± 0.21 |  | 
